Laboratory results published in patent US20240352128A1 (published 2024).
Residue numbers refer to the chain shown, from its start. Where two headings read alike, the source gives them in different places. Blank lines part the entries; values can stand above or below the binder they belong to.

Legend:
Experiment in all cases: FACS
[1] = target: T1, human CD16a on HEK293 cells expressing human CD16a (constructed by Genscript) (human, UniProt P08637 17-254)
[2] = target: T2, human CD16b as FACS target of FIGS. 6B-10B (human, UniProt O75015 17-200)
T2 chain: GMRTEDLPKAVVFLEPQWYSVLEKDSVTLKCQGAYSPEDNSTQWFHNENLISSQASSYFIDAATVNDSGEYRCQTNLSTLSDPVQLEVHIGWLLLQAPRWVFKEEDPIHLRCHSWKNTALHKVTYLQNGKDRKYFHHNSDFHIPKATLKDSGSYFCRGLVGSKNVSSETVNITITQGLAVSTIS

[3] = target: T3, cynomolgus monkey CD16a on HEK293 cells expressing cyno monkey CD16a (constructed by Genscript) (cynomolgus monkey, UniProt Q8SPW2 17-254)
T3 chain: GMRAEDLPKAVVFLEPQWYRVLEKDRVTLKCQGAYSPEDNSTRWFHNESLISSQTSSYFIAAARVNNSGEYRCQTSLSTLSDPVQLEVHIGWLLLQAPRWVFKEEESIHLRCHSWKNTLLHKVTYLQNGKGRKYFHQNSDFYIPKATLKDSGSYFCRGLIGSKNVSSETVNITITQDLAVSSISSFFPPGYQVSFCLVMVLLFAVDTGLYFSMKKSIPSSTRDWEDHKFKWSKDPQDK

[4] = target: T1, human CD16a on HEK293 cells expressing …; remark: listed apart in the source
[5] = target: T2, human CD16b as FACS target of FIGS. …

T1 sequence (P08637 17-254): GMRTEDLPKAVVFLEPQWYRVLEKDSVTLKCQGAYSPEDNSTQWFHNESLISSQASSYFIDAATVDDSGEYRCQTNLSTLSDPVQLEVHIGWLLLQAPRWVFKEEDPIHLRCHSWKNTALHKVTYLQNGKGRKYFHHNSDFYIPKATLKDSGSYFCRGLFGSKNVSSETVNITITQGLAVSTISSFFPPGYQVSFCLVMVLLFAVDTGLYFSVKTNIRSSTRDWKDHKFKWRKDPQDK

EC50 [1]: 0.419 nM
EC50 [2]: 62.3 nM
EC50 [3]: 0.738 nM
B1: pTT5-AR8820-3.1 mIgG1Fc (Fc fusion)
heavy: EVQLVESGGGLVQPGGSLRLSCAASGSSISRYAMAWYRQAPGKGRELVAVVRITGSPIYADFVGGRFTISRDNAKNSLYLQMNSLRAEDTAVYYCATGNFNTYTRRYSPSETWGQGTLVTVSSVPRDCGCKPCICTVPEVSSVFIFPPKPKDVLTITLTPKVTCVVVDISKDDPEVQFSWFVDDVEVHTAQTQPREEQFNSTFRSVSELPIMHQDWLNGKEFKCRVNSAAFPAPIEKTISKTKGRPKAPQVYTIPPPKEQMAKDKVSLTCMITDFFPEDITVEWQWNGQPAENYKNTQPIMDTDGSYFVYSKLNVQKSNWEAGNTFTCSVLHEGLHNHHTEKSLSHSPGK

EC50 [1]: 0.452 nM
EC50 [2]: 61.8 nM
EC50 [3]: 0.751 nM
B2: pTT5-AR8820-3.3 mIgG1Fc (Fc fusion)
VHH-Fc: B1 heavy with A96N

EC50 [4]: 0.47 nM
EC50 [5]: ~497 nM
EC50 [3]: 0.914 nM
B3: pTT5-AR8820-1.2mIgG1Fc (Fc fusion)
heavy: B1 heavy with E1Q, L11V, L47W, A74S, S77T, Q115K, L118T
